{
  "source": "patent US20190256588A1",
  "about": "(BEIJING HANMI PHARM, published 2019)",
  "biological_target": "T1, recombinant rat IL-17A (rat, UniProt Q61453 18-150, limits assumed)",
  "T1 sequence (looked up)": "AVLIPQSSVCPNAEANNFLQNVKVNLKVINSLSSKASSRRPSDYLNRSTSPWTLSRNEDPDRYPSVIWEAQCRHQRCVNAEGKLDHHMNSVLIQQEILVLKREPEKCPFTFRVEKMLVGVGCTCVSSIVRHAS",
  "experiment": "ELISA, recombinant rat IL-17A coated on the plate, HRP anti-human IgG, OD450nm",
  "procedure": "Recombinant human IL-17A, monkey IL-17A, rat IL-17A and mouse IL-17A (all purchased from Sino Biological Inc.), were coated on a 96-well high-absorbing ELISA plate with a carbonate buffer solution with pH 9.6, the coating concentration was […], the coating amount was 100 μL per well, and the coating was carried out at 4° C. overnight. The plate was washed five times with PBST and blocked with 300 μL/well of PBST containing 1% BSA, and then incubated at 25° C. for 1 hour. The plate was washed five times with PBST. […] The plate was washed five times with PBST. Then, horseradish peroxidase-labeled anti-human IgG antibody (Chemicon, Catalog Number AP309P) 1:2000 diluted in PBST containing 1% BSA was added, 100 μL per well, incubated at 25° C. for 1 hour. The plate was washed five times with PBST. 100 μL/well of colorimetric substrate TMB was added and incubated at room temperature for 10 minutes. Color development was terminated by adding 100 μL/well of 1 M H₂SO₄. The absorbance at 450 nm was read on a microplate reader.",
  "data": [
    {"binder": "anti-human IL-17A chimeric monoclonal antibody (antibody, human IgG1, kappa, V domains shown, expressed in 293F cells; also called Anti-human IL-17A Chimeric Antibody; chimeric anti-human IL-17A monoclonal antibody) VH: DVQVQESGPGLVKPSQSLSLTCTVTGNSITSYYAWNWIRQFPGNKLEWMGYITYSGTTSYNPSLKSRISITRDTSKNQFFLQLNSVTTEDTATYYCAREEYDDIYAVDYWGQGTSVTVSS VL: IIVMTQTPLSLPVSLGDQASISCRSSQSLVHSNGNTYLHWYLQKPGQSPKLLIYKVYNRFSGVPDRFSGSGSGTDFTLKISRVEAEDLGVYFCSQSTHFPTFGGGTKLEIKR", "values": [
      {"measurement": "binding result", "result": "no binding (tested: about 20 nM)"}
    ]}
  ]
}
